From paper PMC4764553, “Human cytomegalovirus IE1 protein alters the higher-order chromatin structure by targeting the acidic patch of the nucleosome” (eLife, 2016)
Like-named read-outs stand apart in the source and are kept apart here.

Columns and labels:
Assay in all cases: ITC
[1] = tested on: IE1 full length;human histone octamer WT (human cytomegalovirus (Towne);Homo sapiens)
[2] = tested on: IE1-CTD (chromatin-tethering domain peptide);human histone octamer WT (human cytomegalovirus;Homo sapiens)
[3] = tested on: IE1-CTD (chromatin-tethering domain peptide);human histone octamer WT (human cytomegalovirus;Homo sapiens); remark: listed apart in the source

In the case of 147-bp Widom 601 (human NCP), the Kd [1] is reported as 11.3 µM, the Kd [2] is reported as 0.4 µM and the Kd [3] is reported as 2.25 µM.
